Laboratory results as given in US9132169B2, “Methods and compositions for modulating adipocyte function” (Joslin Diabetes Center, Inc., priority 2003, dated 2015).
“Also recorded” adds a separate entry of the source.

Tests used:
WT brown preadipocytes = assay: Brown adipocyte differentiation, Oil Red O staining; format: cell-based, mouse; conditions: for differentiation of brown preadipocytes, agent alone: brown preadipocyte cell line, single agent; for lipid accumulation as monitored by Oil Red O staining (brown adipocyte differentiation): 33 nM BMP, 10 days, absence of induction cocktail; for differentiation of brown preadipocytes, BMP plus insulin and T3: combination of BMP-6 or -7 plus insulin and T3
Protocol: (§1) Preadipocytes were grown to confluence (day 0) in differentiation medium (Dulbecco's modified […] medium containing 10% Fetal Bovine Serum supplemented with 20 nM insulin and 1 nM T3). Adipocyte differentiation was induced by treating confluent cells for 48 hours in differentiation medium further supplemented with 0.5 mM isobutylmethylxanthine (IBMX), 0.5 mM dexamethazone, and 0.125 mM indomethacin. After this induction period (day 2), cells were placed back to differentiation medium, which was then changed every second day.
(§2) Dishes were washed twice with phosphate-buffered saline and fixed with 10% buffered formalin for at least 1 hour at room temperature. Cells were then stained for 2 hours at room temperature with a filtered oil red 0 solution (0.5% oil red 0 in isopropyl alcohol), washed twice with distilled water, and visualized.
Brown fat precursor cells were isolated from intrascapular brown fat of newborn mice and immortalized by SV40 T antigen.
To begin to explore the role of BMPs on brown adipogenesis, the effect of six different BMPs on differentiation of WT brown preadipocytes was examined. In the absence of induction cocktail, 33 nM of BMPs were added to the normal culture medium and fresh medium was changed every 2 days.

BMP-6 gene expression = BMP-6 gene expression in wildtype brown adipocytes; format: cell-based, mouse; conditions: acute treatment
[1] = system: white preadipocytes (3T3-L1 cells); assay: White preadipocyte differentiation, Oil Red O staining; format: cell-based; conditions: for insulin- and insulin/T3-induced differentiation of 3T3-L1 cells: BMP alone or combined with insulin
Protocol: as §1, §2

[2] = system: mouse embryonic fibroblasts (MEFs); assay: Adipogenesis in mouse embryonic fibroblasts, Oil Red O staining; format: cell-based; conditions: MEF cells, 1 μM rosiglitazone plus BMP, 10 days
Protocol: To examine whether BMPs play a role in determining the fate of pluripotent stem cells toward brown adipocyte lineage, murine pluripotent cells, the effect of BMPs on adipogenesis was evaluated in mouse embryonic fibroblasts (MEFs), which were generated lab using the 3T3 protocol of Todaro and Green (J. Cell. Biol. 17:299-313 (1963)). The MEF cells were maintained in Dulbecco's Modified Eagle Medium (DMEM) supplemented with 10% FBS.
(§3) MEF cells were grown in culture media containing 1 μM of rosiglitazone, BMPs, or a combination of both for 10 days. Oil Red O staining was performed at the end of differentiation to monitor the degree of adipogenesis. […] Whole cell lysates were isolated from these cells to examine the expression of the adipogenic marker FAS (fatty acid synthase).

PPARγ = PPARγ mRNA and protein expression in brown preadipocytes; format: cell-based, mouse
From the text: (§4) PGC-1∀ and UCP-1 are two decisive cellular markers of brown adipocytes.

UCP-1 promoter = assay: UCP-1 expression reporter gene (UCP-1 promoter linked to firefly luciferase); format: cell-based; conditions: 10 uM TZD and retinoic acid, presence of PPARγ and RxRa
From the text: Adaptive thermogenesis is an important component of energy homeostasis and a metabolic defense against obesity.

[3] = system: FAS (fatty acid synthase); assay: FAS protein expression in MEF whole cell lysates; format: cell-based, mouse; conditions: MEF cells, presence of induction cocktail or TZD
Protocol: as §3

UCP-1 = UCP-1 protein expression by Western blot in brown preadipocytes; format: cell-based, mouse; conditions: combination of 20 nM insulin, 1 nM T3 and 8.3 nM BMP-7
From the text: as §4

[4] = system: Pref-1 (preadipocyte factor-1); assay: Pref-1 expression by quantitative RT-PCR in IRS-1 KO cells; format: cell-based, mouse; conditions: 30 nM over six days
From the text: IRS-1 signalling plays an important role in insulin resistance, which is a hallmark of Type II diabetes.

Smad 1/5/8 = assay: BMP signaling in WT brown preadipocytes, phospho-specific antibody Western blot; format: cell-based, mouse
Protocol: (§5) Brown fat precursor cells were isolated from intrascapular brown fat of newborn mice and immortalized by SV40 T antigen. […] Following differentiation with an induction cocktail of 20 nM insulin, 1 nM thyroid hormone [3,5,3′-triiodothyronine (T3)], 0.5 μM dexamethazone, 0.125 mM indomethacin, and 0.5 mM isobutylmethylxanthine, pre-adipocytes became smaller, rounded up, accumulated fat, and the cytoplasm/nuclear-ratio increased dramatically. Once fully differentiated, multi-locular fat droplets could be detected both microscopically and by Oil Red-O staining. Expression of UCP-1 was detected at basal state and upon β-adrenergic stimulation, confirming the features of brown adipocytes (methods described in Klein et al., J. Biol. Chem. 274:34795-34802 (1999)).
(§6) To see if BMPs were able to transmit signals into these cells, the WT brown preadipocytes were treated with recombinant BMP-6 (R&D Systems).

p38 MAPK = assay: as above; format: cell-based, mouse; conditions: WT brown preadipocytes treated with recombinant BMP-6, phospho-specific antibodies (Thr180/Tyr182)
Protocol: as §5, §6

PGC-1a = PGC-1a mRNA expression by quantitative RT-PCR in brown preadipocytes; format: cell-based, mouse
From the text: as §4

[5] = system: IRS-1 KO brown preadipocytes; assay: Differentiation of IRS-1 knockout brown preadipocytes; format: cell-based, mouse
Protocol: as §1, §2
These factors utilize a complex signaling pathway to exert their pleiotropic biological effects involving activation of their respective cell surface receptors and phosphorylation of several intracellular insulin/IGF-1 receptor substrates (IRS). To determine the role of this signaling pathway in the regulation of brown adipogenesis and metabolism, brown preadipocyte cell lines were generated from wild-type (WT) and different IRS knockout (KO) mice (Fasshauer et al., Mol Cell Biol 21:319-329 (2001); Tseng et al., J Biol. Chem. 277:31601-31611 (2002); Tseng et al., Mol Cell Biol 24:1918-1929 (2004)). These cells were studied in both their fibroblastic and differentiated states. […] This occurred not only at the levels of lipid accumulation, but also involved blockade of the normal pattern of progression in the transcriptional regulators of adipogenesis, such as C/EBPα and PPARγ, as well as thermogenic marker UCP-1.
The differentiation inductive effect of BMP-6 is more easily seen in brown adipocytes from IRS-1 knockout animals, which are known to have a defect in adipocyte differentiation. […]

[6] = standard induction conditions (W induction)

Molecule: N[C@@H](Cc1cc(I)c(Oc2ccc(O)c(I)c2)c(I)c1)C(=O)O [T3, 3,5,3′-triiodothyronine, reference compound]
- differentiation of brown preadipocytes, agent alone (WT brown preadipocytes): pro-differentiative effects

Molecule: IGF-1: known inducer of adipocyte differentiation
- BMP-6 gene expression (BMP-6 gene expression): acutely induce

Molecule: insulin: known inducer of adipocyte differentiation
- differentiation of brown preadipocytes, agent alone (WT brown preadipocytes): pro-differentiative effects
- BMP-6 gene expression (BMP-6 gene expression): acutely induce

B1: BMP-7: bone morphogenetic protein 7 (protein, listed as Homo sapiens)
chain: STGSKQRSQNRSKTPKNQEALRMANVAENSSSDQRQACKKHELYVSFRDLGWQDWIIAPEGYAAYYCEGECAFPLNSYMNATNHAIVQTLVHFINPETVPKPCCAPTQLNAISVLYFDDSSNVILKKYRNMVVRACGCH
- lipid accumulation as monitored by Oil Red O staining (brown adipocyte differentiation) (WT brown preadipocytes): substantial increase in lipid accumulation
- differentiation of brown preadipocytes, agent alone (WT brown preadipocytes): pro-differentiative effects
- differentiation of brown preadipocytes, BMP plus insulin and T3 (WT brown preadipocytes): strongly enhanced
- differentiation of brown preadipocytes, insulin plus B7 (WT brown preadipocytes; combination with insulin): strong combination effects
- insulin- and insulin/T3-induced differentiation of 3T3-L1 cells [1]: Little to no effect
- TZD effects on adipocyte differentiation (Oil Red O) [2]: potentiated the TZD effects
- PPARγ expression, combination treatments (PPARγ; combination of 20 nM insulin, 1 nM T3 and 8.3 nM BMP-7, Western blot): strongest induction
- TZD/RA-induced stimulation of UCP-1 promoter activity (UCP-1 promoter): enhanced
- FAS protein expression [3]: induced FAS protein expression
- UCP-1 expression, combination treatments (UCP-1): strongest induction

B2: BMP-3: bone morphogenetic protein 3, added at 33 nM to culture medium (protein, UniProt P12645 363-472, looked up)
Bone morphogenetic protein 3: QWIEPRNCARRYLKVDFADIGWSEWIISPKSFDAYYCSGACQFPMPKSLKPSNHATIQSIVRAVGVVPGIPEPCCVPEKMSSLSILFFDENKNVVLKVYPNMTVESCACR
- lipid accumulation as monitored by Oil Red O staining (brown adipocyte differentiation) (WT brown preadipocytes): no effect

B3: BMP-6: Recombinant human BMP-6 (R & D Systems, MN) (protein, listed as Homo sapiens)
chain: RSASSRRRQQSRNRSTQSQDVARVSSASDYNSSELKTACRKHELYVSFQDLGWQDWIIAPKGYAANYCDGECSFPLNAHMNATNHAIVQTLVHLMNPEYVPKPCCAPTKLNAISVLYFDDNSNVILKKYRNMVVRACGCH
- morphology of wild-type brown pre-adipocytes (WT brown preadipocytes): cause changes in the morphology
- lipid accumulation as monitored by Oil Red O staining (brown adipocyte differentiation) (WT brown preadipocytes): substantial increase in lipid accumulation
- differentiation of wildtype brown preadipocytes, without induction (WT brown preadipocytes; absence of standard induction conditions (W/O induction)): increased the level of brown adipocyte differentiation
- differentiation of brown preadipocytes, agent alone (WT brown preadipocytes): pro-differentiative effects
- differentiation of brown preadipocytes, BMP plus insulin and T3 (WT brown preadipocytes): strongly enhanced
- differentiation of wildtype brown preadipocytes, with induction (WT brown preadipocytes; [6]): enhance differentiation; also recorded: enhanced the level of differentiation
- acceleration of differentiation (Oil Red O staining) (WT brown preadipocytes; wild-type brown adipocytes, presence of induction cocktail): 1 to 2 days
- differentiation of white preadipocytes ([1]; 33 nM, 8 days): did not induce differentiation
- insulin- and insulin/T3-induced differentiation of 3T3-L1 cells [1]: Little to no effect
- WAT differentiation (3T3-L1), without induction ([1]; W/O induction): no change
- differentiation of 3T3-L1 cells, with induction [1, 6]: inhibited the level of differentiation
- Pref-1 expression [4]: down-regulation
- TZD effects on adipocyte differentiation (Oil Red O) [2]: potentiated the TZD effects
- PPARγ protein expression (PPARγ; BMP-6 treatment, course of differentiation (0, 3, 6 days), Western blot): markedly induced; also recorded: approximately maximal by day 3; also recorded: increase
- PPARγ mRNA expression (PPARγ; BMP-6 treatment, course of differentiation (0, 3, 6 days), quantitative RT-PCR): markedly induced; also recorded: approximately maximal by day 3; also recorded: increase
- expression of PPARγ during spontaneous differentiation (PPARγ; addition of recombinant BMP-6): induced expression
- activation of Smad 1/5/8 (Smad 1/5/8; WT brown preadipocytes treated with recombinant BMP-6): quickly activated
- activation of Smad 1/5/8 (Smad 1/5/8; WT brown preadipocytes treated with recombinant BMP-6, listed as BMP6): activation
- activation of p38 MAPK (p38 MAPK): quickly activated
- activation of p38 MAPK (p38 MAPK; listed as BMP6): activation
- FAS protein expression [3]: induced FAS protein expression
- PGC-1a mRNA expression at day 3 (PGC-1a; Q-RT-PCR, day 3): quickly induced
- PGC-1a mRNA expression as differentiation progressed to day 9 (PGC-1a; Q-RT-PCR, to day 9): further increased
- expression of PGC-1 during spontaneous differentiation (PGC-1a; addition of recombinant BMP-6): induced expression
- PGC-1a mRNA expression at 0, 3, and 6 days after treatment (PGC-1a; quantitative RT-PCR, FIG. 3): increase
- differentiation of IRS-1 KO brown preadipocytes ([5]; 30 nM over six days): restores the defects in differentiation
- BAT differentiation of IRS-1 knockout preadipocytes, without induction ([5]; W/O induction): no change
- differentiation of IRS-1 knockout brown preadipocytes, with induction [5, 6]: rescue, at least partially; also recorded: enhanced the level of differentiation

B4: BMP-4: bone morphogenetic protein 4, added at 33 nM to culture medium (protein, listed as Homo sapiens)
chain: SPKHHSQRARKKNKNCRRHSLYVDFSDVGWNDWIVAPPGYQAFYCHGDCPFPLADHLNSTNHAIVQTLVNSVNSSIPKACCVPTELSAISMLYLDEYDKVVLKNYQEMVVEGCGCR
- lipid accumulation as monitored by Oil Red O staining (brown adipocyte differentiation) (WT brown preadipocytes): substantial increase in lipid accumulation

B5: BMP-5: bone morphogenetic protein 5, added at 33 nM to culture medium (protein, listed as Homo sapiens)
chain: NQNRNKSSSHQDSSRMSSVGDYNTSEQKQACKKHELYVSFRDLGWQDWIIAPEGYAAFYCDGECSFPLNAHMNATNHAIVQTLVHLMFPDHVPKPCCAPTKLNAISVLYFDDSSNVILKKYRNMVVRSCGCH
- lipid accumulation as monitored by Oil Red O staining (brown adipocyte differentiation) (WT brown preadipocytes): weaker effect
